For the data set, the target named is nsp12 (RNA-dependent RNA polymerase);nsp7;nsp8 (SARS-CoV-2;SARS-CoV-2;SARS-CoV-2, UniProt P0DTD1;P0DTD1;P0DTD1 4393-5324;3860-3942;3943-4140, ||). The data set can be described thus: cryo-EM structure (2.5 A). The settings on record: protein: recombinant;recombinant;recombinant; tags: C-terminal TEV site-double StrepII on the nsp5-nsp7-nsp8-nsp12 polyprotein;;; copies: 1;1;2.

Consider 1 molecule from PMC7896311, “Structure of the SARS-CoV-2 RNA-dependent RNA polymerase in the presence of favipiravir-RTP”.

B1: primer:template RNA duplex (dsRNA)
RNA 1: CAGUGCUAUGUGAGAUUAAGUUAU
RNA 2: UUUUUCAUAACUUAAUCUCACAUAGCACUG
Turning to B1, the binding result is given as “binds”.
